From article PMC3770571

Experiments:
[1] = target: endogenous LANA of KSHV infected PEL cells (KSHV (HHV8) (endogenous in BCBL1, JSC1, BC3)) (UniProt Q9QR71); assay: co-IP; lysate of 30 million BCBL1 cells treated with 2 U micrococcal nuclease (mononucleosomes), anti-LANA IP
[2] = target: endogenous LANA of KSHV infected PEL cells (KSHV (HHV8) (endogenous in BCBL1, JSC1, BC3)) (UniProt Q9QR71); assay: co-IP

Sequence of UniProt Q9QR71 (Q9QR71 whole entry): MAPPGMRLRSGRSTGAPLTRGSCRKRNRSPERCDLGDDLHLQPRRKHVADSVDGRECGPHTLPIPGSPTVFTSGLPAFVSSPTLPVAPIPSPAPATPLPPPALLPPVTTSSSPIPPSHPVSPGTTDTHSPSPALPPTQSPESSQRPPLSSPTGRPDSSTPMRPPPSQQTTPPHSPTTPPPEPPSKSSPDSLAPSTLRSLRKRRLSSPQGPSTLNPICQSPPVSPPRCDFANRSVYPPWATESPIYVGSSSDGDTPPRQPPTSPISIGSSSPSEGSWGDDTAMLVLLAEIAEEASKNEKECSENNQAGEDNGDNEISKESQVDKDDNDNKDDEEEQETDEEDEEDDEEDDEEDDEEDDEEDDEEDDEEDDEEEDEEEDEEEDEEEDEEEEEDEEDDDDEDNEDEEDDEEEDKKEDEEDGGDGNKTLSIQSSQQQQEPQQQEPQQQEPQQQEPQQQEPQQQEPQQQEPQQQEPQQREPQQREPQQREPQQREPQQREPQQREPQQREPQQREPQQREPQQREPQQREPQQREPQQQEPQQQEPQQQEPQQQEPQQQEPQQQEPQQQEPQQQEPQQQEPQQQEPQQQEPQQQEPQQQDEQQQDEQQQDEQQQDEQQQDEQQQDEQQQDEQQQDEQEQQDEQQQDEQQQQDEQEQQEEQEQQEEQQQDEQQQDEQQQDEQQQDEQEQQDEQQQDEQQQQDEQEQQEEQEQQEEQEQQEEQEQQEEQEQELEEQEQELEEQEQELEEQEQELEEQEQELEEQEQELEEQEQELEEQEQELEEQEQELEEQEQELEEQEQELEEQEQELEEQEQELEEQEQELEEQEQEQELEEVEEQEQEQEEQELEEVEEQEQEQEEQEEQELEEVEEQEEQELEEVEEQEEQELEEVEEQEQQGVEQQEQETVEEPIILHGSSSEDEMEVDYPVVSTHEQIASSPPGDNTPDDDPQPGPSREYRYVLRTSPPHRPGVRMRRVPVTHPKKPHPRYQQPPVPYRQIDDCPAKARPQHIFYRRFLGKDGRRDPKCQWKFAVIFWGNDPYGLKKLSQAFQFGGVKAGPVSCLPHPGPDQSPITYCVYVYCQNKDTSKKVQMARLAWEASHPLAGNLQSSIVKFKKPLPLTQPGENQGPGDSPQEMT

Substance: endogenous histone H1 of human cells (from UniProt P16403 1-213) (natural protein)
- relative density of the co-precipitated band (input set at 10%) [1]: 10%
- relative density of the co-precipitated band (input set at 10%) [2]: 30%
